# ± gives the uncertainty stated by the source.
# Assay: amyloid nucleation score (Sup35N fusion, yeast selection) (log enrichment); library NNK2; higher = more nucleation; inactive = no reads after selection
# Method in brief: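 The nucleation score equals the log enrichment of output over input reads from DiMSum, centred on the mode score of non-aggregating sequences. It was computed only for sequences with 100 or more input reads. The reads came from Illumina sequencing of plasmid inserts from psi-negative yeast expressing Sup35N fused to peptides of 20 random codons, induced with 100 μM copper sulfate for 24 hours and grown 7 days at 30°C without adenine and uracil.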
row,Substance,amyloid nucleation score
1,RMWCLGLDPLYTENKGSSDA,-0.427 ± 1.1
2,GTLGFDLKR,-0.507 ± 0.76
3,RGTMVWTDCFMCLGLYKKVY,-0.896 ± 0.56
4,YCFRS,-0.542 ± 0.64
5,AWKMVMRLDARPLARFWGDG,5.34 ± 0.092
6,LYCIVQGKSSGIHQRATFCF,inactive
7,VSCCCFFGLTLAVLGHSEVS,3.55 ± 0.12
8,THRTGLDK,0.319 ± 0.36
9,CVCSVYAGNFCLIVLVWLMV,0.433 ± 0.74
10,IKVYESYVRT,-0.812 ± 0.39
11,KMWIRLLRSEIPKCVGLTVS,0.66 ± 0.23
12,STLVWSEIIF,0.592 ± 0.47
13,KLIYSSYVGSFLMELRWVCD,1.74 ± 0.17
14,WQKLLIDYSSSTYDEALGT,0.833 ± 0.8
15,FCFSLCWDIFNVLSVFGYNF,-0.793 ± 1
16,ITFAYVSLTLHRINEMGYQL,4.65 ± 0.049
17,RRAILWPNGAN,0.097 ± 0.37
18,LLGMVNTQLKGNHSYTYKSG,-1.14 ± 0.55
19,GCVLSVSWWVGSSLVNWGYY,5.356 ± 0.052
20,GDIMKCSRCSATLGEPMKRC,0.218 ± 1.1
21,PIIIDDLMYLGDVDLTMFGE,-0.234 ± 0.74
22,QEVELGMGPKRGETVKEVDL,0.098 ± 0.22

row,Substance,amyloid nucleation score
1,HVHGMYSGWCYDKTGQEKGM,0.624 ± 0.34
2,HRSMPIRYWVVTIWYGRSDS,0.569 ± 0.41
3,FNGVLDWEWHGVAFAWAGLV,0.399 ± 0.65
4,RVNPCMTEGSLGLICSPYWY,-0.511 ± 0.22
5,HRMNGFDLLMLVCKKCIDFC,inactive
6,LIYVATMWGNHSFYDLWDMQ,0.112 ± 0.21
7,CLFWLHQHMQYFHVMGLSPT,2.21 ± 0.22
8,CFTNIYRKGMMCYGPFTAMT,-0.214 ± 1.1
9,GESNMVYCLYQGTILSFAGW,8.379 ± 0.04
10,VFLAPRMF,-0.864 ± 0.45
11,CDTYNFCIL,6.124 ± 0.035
12,VLVSVVRCDVVAAVRCVQM,3.56 ± 0.11
13,SYHAYRG,-0.064 ± 0.37
14,LCCVVEN,-0.603 ± 0.42
15,NILIRASGVRA,inactive
16,VDGTFYLTYFTTCVQSIFFA,0.558 ± 0.6
17,RGGSTPYYNWSAGDGWKKDK,2.86 ± 0.065
18,NCARH,-0.215 ± 0.3
19,RYRSFICALLRGFTDLACL,-1.53 ± 1.1
20,FCPLLPVRFHV,-0.533 ± 0.61
21,ASIVNYHFD,inactive
22,YGRIR,-0.131 ± 0.63

row,Substance,amyloid nucleation score
1,SSRLAKIHSMGWFFIFLGIS,-1.22 ± 1
2,RQFPGFSSYPTLEINFYICV,6.76 ± 0.069
3,TCTNLSCTGWKNGVCVCM,8.536 ± 0.057
4,RMSIICFALKYILYRWMFRL,0.988 ± 0.74
5,TYHCN,0.765 ± 0.43
6,VAHSVTGFQWHACSREMNFR,4.57 ± 0.12
7,CTCLWNDMRRGP,1.99 ± 0.25
8,TVKCYNL,0.268 ± 0.46
9,DNKWILDRLIQHSLDHKVCR,-0.332 ± 0.63
10,KNINWILNAGSMLVSFYRPW,7.328 ± 0.065
11,SLWKLGSLMSTFFEL,-0.758 ± 0.45
12,IYDLSCAKARLYVASHSLTL,0.418 ± 0.31
13,TLVCSKAFKYVGV,0.131 ± 0.46
14,GTSIFHRKDGASTDMACQPF,0.14 ± 0.63
15,ITDVFSDAACNRWQINYTQA,-0.832 ± 0.33
16,CGYVEV,0.244 ± 0.65
17,RLWTCLEVLKFSGGLIASMY,-1.05 ± 0.44
18,LFMACLIGIFFHVETTRCRW,2.5 ± 0.13
19,SHSYGTER,4.64 ± 0.074
20,KGNEY,-0.757 ± 0.64
21,KHCIIRFIKLGLGKKLKQPV,-1.02 ± 0.36
22,VVFRLRSNRGNVVPRSWAWC,1.71 ± 0.13

row,Substance,amyloid nucleation score
1,VFTYLSSDFYTGWTMVNHIM,-0.357 ± 0.21
2,YGSCGQRKN,0.519 ± 0.3
3,TLQKELSHVQETRYTW,-0.288 ± 1
4,WLIKPVAPLSVYWSVWWSVV,0.3 ± 0.55
5,LSRQFRRYLMLSLFYFVLLP,-1.21 ± 0.38
6,LYDWRWSWSRSATSSFGWLT,0.296 ± 0.49
7,STPIAEV,0.6 ± 0.29
8,SFGVGEFDVNYLMERRF,-0.066 ± 0.4
9,VRKRNVFFSSSFSSQRSGNC,-0.327 ± 0.63
10,QFHFK,0.036 ± 0.35
11,GWRLTRDRVG,1.31 ± 0.18
12,CCWVSLMRGNRLSTDSSNTL,-0.087 ± 0.37
13,TLGKVGHYRRNNNMPVARFD,-0.11 ± 0.74
14,CNFHCPI,2.63 ± 0.17
15,FMDIHRKMGTHVFLRKCFRI,-0.771 ± 1.1
16,SLWVMKCDKDTKYADRSFTL,-0.632 ± 1.1
17,PCSWPNPHLRIGFRLKSPPP,4.34 ± 0.076
18,YDSFMVGVCYAG,-1.42 ± 1.1
19,AGMHLRVWHSDTHHWLLLNR,3.76 ± 0.074
20,MDLRWKSSGRKVNLNRLIQR,4.647 ± 0.036
21,QRDHWNAALCKVLLLSGLLR,0.057 ± 0.33

# Source: the supplement of paper PMC12042874
